Data reported in PMC5934647, “Targeting IS608 transposon integration to highly specific sequences by structure-based transposon engineering”.

Molecular target: T1, IS608 TnpA transposase (Helicobacter pylori (IS608), UniProt Q933Z0 1-155)
T1 sequence: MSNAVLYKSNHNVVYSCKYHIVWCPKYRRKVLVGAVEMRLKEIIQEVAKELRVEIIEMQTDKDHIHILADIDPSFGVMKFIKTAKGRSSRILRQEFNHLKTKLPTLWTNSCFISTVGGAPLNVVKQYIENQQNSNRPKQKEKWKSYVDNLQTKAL
Assay: X-ray crystallography (2.6 A); Ca2+; 2 LE29 and 2 T6' per TnpA dimer; pre-cleavage target capture complex; Crystal complex: TnpA:LE29:T6' 1:1:1.3, 20 mM Tris-HCl pH 7.5, 0.2 M NaCl, 0.2 mM TCEP, 2 mM EDTA; crystallized with 14.6% PEG 3350, 0.19 M calcium acetate; cleavage and integration assays are activity read-outs and not listed
Conditions: protein: recombinant; chain copies: 2; LE29 imperfect hairpin; GL of LE29 pairs with TTAC of T6', A+42 and T+43 form base triplets; 2 copies of each strand per TnpA dimer

B1: LE29 hairpin + T6' target oligo (structured_DNA)
DNA 1: AAAGCCCCTAGCTTTTAGCTATGGGGATA
DNA 2: ATTACC
B1: binds.
